We go through 2 substances from patent publication EP2168984B1.

Assay in all cases: cell-based or functional assay
Assay [1] deals with Cyno IL-12 (cynomolgus monkey).
For another assay, the target named is Baboon IL-12 (baboon).
In assay [2] the target is recombinant human IL-12 (human) (UniProt P29459).
The target of assay [3] is Rhesus IL-12 (rhesus monkey) (UniProt P48091).
A further assay addresses murine IL-12 (mouse) (UniProt P43431).

murine IL-12 (mouse), sequence (P43431 23-215, chain 1 of 2): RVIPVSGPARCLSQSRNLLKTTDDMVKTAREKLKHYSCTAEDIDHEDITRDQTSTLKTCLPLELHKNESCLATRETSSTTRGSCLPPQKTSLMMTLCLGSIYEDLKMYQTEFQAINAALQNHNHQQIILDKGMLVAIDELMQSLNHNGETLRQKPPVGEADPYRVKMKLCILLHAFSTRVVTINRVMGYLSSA
murine IL-12 (mouse), sequence (P43432 23-335, chain 2 of 2, further chain): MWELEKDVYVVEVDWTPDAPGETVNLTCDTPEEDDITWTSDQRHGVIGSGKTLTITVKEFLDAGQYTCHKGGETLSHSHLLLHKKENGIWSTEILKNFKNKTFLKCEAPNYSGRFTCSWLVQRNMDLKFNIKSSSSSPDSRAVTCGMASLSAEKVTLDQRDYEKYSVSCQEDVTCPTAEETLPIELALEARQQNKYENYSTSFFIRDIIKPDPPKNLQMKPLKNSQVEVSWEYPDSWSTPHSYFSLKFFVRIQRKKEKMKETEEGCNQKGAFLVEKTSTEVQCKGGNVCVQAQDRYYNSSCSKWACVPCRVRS
Rhesus IL-12 (rhesus monkey), sequence (P48091 23-219, chain 1 of 2): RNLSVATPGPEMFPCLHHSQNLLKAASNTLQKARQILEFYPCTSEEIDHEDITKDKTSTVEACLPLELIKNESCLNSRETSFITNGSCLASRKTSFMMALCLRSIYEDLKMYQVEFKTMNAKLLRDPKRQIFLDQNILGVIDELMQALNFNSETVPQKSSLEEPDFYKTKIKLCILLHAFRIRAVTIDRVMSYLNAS
Rhesus IL-12 (rhesus monkey), sequence (P48095 23-328, chain 2 of 2, further chain): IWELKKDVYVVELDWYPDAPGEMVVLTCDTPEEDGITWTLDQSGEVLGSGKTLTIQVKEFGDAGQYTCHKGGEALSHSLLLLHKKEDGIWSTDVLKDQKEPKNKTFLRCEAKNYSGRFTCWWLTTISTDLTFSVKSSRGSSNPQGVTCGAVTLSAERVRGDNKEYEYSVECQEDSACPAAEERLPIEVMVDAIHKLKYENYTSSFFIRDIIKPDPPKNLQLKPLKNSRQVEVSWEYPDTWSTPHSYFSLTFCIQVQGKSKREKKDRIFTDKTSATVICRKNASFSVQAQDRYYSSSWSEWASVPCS
recombinant human IL-12 (human), sequence (P29459 23-219, chain 1 of 2): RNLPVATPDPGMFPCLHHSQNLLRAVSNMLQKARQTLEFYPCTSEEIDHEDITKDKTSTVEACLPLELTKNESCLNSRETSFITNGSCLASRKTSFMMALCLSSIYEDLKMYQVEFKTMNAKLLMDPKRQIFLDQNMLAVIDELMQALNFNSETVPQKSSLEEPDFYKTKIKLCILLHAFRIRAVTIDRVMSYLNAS
recombinant human IL-12 (human), sequence (P29460 23-328, chain 2 of 2, further chain): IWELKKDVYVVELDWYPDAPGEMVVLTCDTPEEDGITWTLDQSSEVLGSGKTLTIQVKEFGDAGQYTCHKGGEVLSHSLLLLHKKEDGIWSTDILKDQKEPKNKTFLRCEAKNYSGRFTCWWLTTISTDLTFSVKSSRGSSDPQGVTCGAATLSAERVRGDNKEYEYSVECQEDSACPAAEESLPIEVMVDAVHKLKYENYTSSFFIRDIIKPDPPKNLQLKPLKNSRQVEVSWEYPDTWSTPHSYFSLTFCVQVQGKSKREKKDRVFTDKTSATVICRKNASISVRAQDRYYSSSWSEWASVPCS

As to C8.6.2 (antibody), the IC50 (M), species cross reactivity bioassay was found to be 1.2e-10 M in assay [1], 2e-10 M with Baboon IL-12 (baboon), 5e-11 M in assay [2] and 1e-10 M in assay [3].
On to C17.15 (antibody), for which, in the assay with murine IL-12 (mouse), the IC50 (M), species cross reactivity bioassay worked out at 3e-11 M and the PHA blast Assay IC50 came out at 0.014 nM.
